Values of other authors, collected in PMC4650670.

Target: actin (Oryctolagus cuniculus) (UniProt P68135)

Kd: 220 µM
Substance: nebulin repeat fragment (from UniProt P20929)
